Assay results reported in patent US20250163183A1 (COAGULANT THERAPEUTICS, published 2025).
Numbering of substitutions follows the chain as printed. Where two headings read alike, the source gives them in different places.

How the values were obtained:
[1] = biological target: T1, human APC-PPACK (active site-blocked APC) (human, UniProt P04070 43-461, active site bound by the tripeptide inhibitor Phe-Pro-Arg-chloromethylketone (PPACK)); assay: ELISA
T1 construct: Bought (Haematologic Technologies)
T1 sequence (P04070 other isoform, or with tags, fused parts or gaps): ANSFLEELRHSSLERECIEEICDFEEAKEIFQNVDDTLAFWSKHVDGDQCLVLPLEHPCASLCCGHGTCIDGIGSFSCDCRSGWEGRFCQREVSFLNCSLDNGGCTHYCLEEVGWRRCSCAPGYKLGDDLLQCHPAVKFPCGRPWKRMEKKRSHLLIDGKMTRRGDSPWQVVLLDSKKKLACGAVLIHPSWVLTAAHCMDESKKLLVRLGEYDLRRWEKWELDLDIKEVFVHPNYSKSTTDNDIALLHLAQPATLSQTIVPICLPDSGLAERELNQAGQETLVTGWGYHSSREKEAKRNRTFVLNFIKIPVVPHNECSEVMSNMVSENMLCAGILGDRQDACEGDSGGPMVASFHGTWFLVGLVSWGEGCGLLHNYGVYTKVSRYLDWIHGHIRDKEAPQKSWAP

[2] = biological target: T2, human protein C (PC) zymogen (human, UniProt P04070 43-197; P04070 200-461); assay: ELISA screen, PC-coated wells, OD450, n=2 [Continued]
T2 construct: Bought
T2 sequence (P04070 43-197, chain 1 of 2): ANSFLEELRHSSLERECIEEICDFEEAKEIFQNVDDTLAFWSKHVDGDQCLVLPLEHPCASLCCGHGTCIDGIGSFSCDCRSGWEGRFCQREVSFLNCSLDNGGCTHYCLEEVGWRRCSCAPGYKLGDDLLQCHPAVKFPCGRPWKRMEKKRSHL
T2 sequence (P04070 200-461, chain 2 of 2): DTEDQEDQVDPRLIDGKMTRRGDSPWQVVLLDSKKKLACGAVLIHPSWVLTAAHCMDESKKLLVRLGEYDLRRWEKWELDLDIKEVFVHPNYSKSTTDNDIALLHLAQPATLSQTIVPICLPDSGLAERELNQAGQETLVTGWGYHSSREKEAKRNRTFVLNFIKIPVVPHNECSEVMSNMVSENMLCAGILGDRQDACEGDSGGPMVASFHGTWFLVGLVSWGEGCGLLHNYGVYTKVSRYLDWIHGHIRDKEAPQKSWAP

[3] = biological target: T2, human protein C (PC) zymogen; assay: as above; remark: listed apart in the source

B1: SR16983-R2-P4-F01 (VHH)
VHH: QLQLVESGGGLVQAGGSLRLSCAASGRTFVGSYVMGWFRQAPGKAREFVAASSRSTGNTVYLDAVKGRFTVSRDDAKNTLYLQMSSLKPEDTAVYYCATRASINYNYANWPYWGQGTQVTVSS
B1: binds [1]; no binding [2].

B2: SR16983-R3P2A07 (VHH)
VHH: QVQLVESGGRLVQAGGSLRLSCAASGRTSSNYAMGWFRQAPGKERRFVAGISRDGADTSYADSVKGRFTILRDRSKNTADLQMNSLKPEDTAIYYCAAARGIYGEISRYTGDYESWGQGTQVTVSS
B2: no binding [3]; binds [1].

B3: SR16983-R2-P4-E11 (VHH)
VHH: QLQLVESGGGLVQAGGSLRLSCAASGTTFSFVYMGWYRQAPGNQRDLVARISRDGSTNYLDSVKGRFTISGDNAKNTVYLQMNSLKPEDTARYYCFYNGHLNKWGRGTQVTVSS
B3: binds [1]; no binding [2].

B4: SR16983-R3P2D01 (VHH)
VHH: B3 VHH with F29S, R53S, L60A, L101V, R106Q
B4: binds [1]; no binding [2].

B5: SR16983-R3-P4-E11 (VHH)
VHH: B3 VHH with S7F, T27S, V32N, R53S, D54G, S56I, L60A, H100Y, R106Q
B5: binds [1]; no binding [2].

B6: SR16983-R4-P1-C10 (VHH)
VHH: QVQLVESGGGLVQAGGSLRLSCVAYGSTFSINVFAWYRQAPGEQRELGELVAFIGRSGTTKYGDSVKGRFTISRDNAKNTVYLQMDSLRPEDTAVYYCNLGDYWGQGTQVTVSS
B6: binds [1]; no binding [2].

B7: SR16983-R3-P2-B05 (VHH)
VHH: QLQLVESGGGLVQAGGSLRLSCAASGTTSSLNLMGWYRQAPGKKRESVAHMTSDGRTDYVDSVKGRFTISRDNSKNTVYLQMNNLKPEDTAVYICYANPFLGSWSNYWGQGTQVTVSS
notes: The cell prints 55 (a CDR1 entry); to be checked
B7: no binding [2].

B8: SR16983-R4-P1-A12 (VHH)
VHH: B7 VHH with R56D, L85V, I94Y
B8: no binding [3]; binds [1].

B9: SR16983-R2-P4-H08 (VHH)
VHH: B7 VHH with V12M, V60T, I94Y
B9: no binding [3]; binds [1].

B10: SR16983-R2-P2-E10 (VHH)
VHH: QLQLVESGGGLVQPGGSLRLSCVLSGSTFGRNVITWYRQPPGKQREFIAMITTSGSTRYADSVKGRFTMSRDTAKNTAFLQMSNLKLEDTAVYYCWTAIAGQGEYWGQGTQVTVSS
B10: no binding [3]; binds [1].

B11: SR16983-R4-P1-C07 (VHH)
VHH: B10 VHH with Q1E, L2V, L11V, P14A, S27N, R31D, T53K, N84S, L87V
B11: no binding [3]; binds [1].

B12: SR16983-R3P2F4 (VHH)
VHH: QLQLVESGGGLVQAGGSLRLSCAASGRIFGTYVMGWFRQAPGKEREFVAAVSRSTGSTYADSVKGRFTISRDDAKNMLYLQMNNLRPEDTAIYYCATRASINYNYANWPYWGQGTQVTVSS
B12: no binding [3]; binds [1].

B13: SR16983-R2-P4-F09 (VHH)
VHH: QVQLVESGGGLVQAGGSLRLSCAASGFTFDDYAIGWFRQAPGKEREGIACRSTDGSTYYADSVEGRFTISSDNAKRTVYLQMNSLKPGDTAVYYCAADLMGVHRRCSGYLNLEYGMDYWAKGTLVTVSS
B13: no binding [3]; binds [1].

B14: SR16983-R2-P4-E08 (VHH)
VHH: QLQLVESGGGLVQAGGSLTLSCAASGFTLDDYAIGWFRQAPGKEREGVSCIATSDGSTYYADSVKGRFTISSDNAKNTVYLQMNSLKPEDTAVYYCARGGLLLPKPELFDFRGQGTQVTVSP
B14: binds [1]; no binding [2].

B15: SR16983-R3P2A08 (VHH)
VHH: QLQLVESGGGLVQPGGSLRLSCAASGFTFSTKWMYWVRQGPGKGLERVAAIDASGGSTYYADSVKGRFTISRDNSENTVYLQMNSLESADTAVYYCARSEGGLFRGRGTQVTVSA
B15: binds [1]; no binding [2].

B16: SR16983-R2P1C12 (VHH)
VHH: B15 VHH with L2V, T31M, R47W, A49S, A50T, A53T, G56S, E76K, E100A, A115S
B16: binds [1]; no binding [2].

B17: SR16983-R3P2A5 (VHH)
VHH: B15 VHH with V79L
B17: binds [1]; no binding [2].

B18: SR16983-R2-P3-F10 (VHH)
VHH: B15 VHH with L2V, A23K, E76D, L103Q, R107Q, A115S
B18: binds [1]; no binding [2].

B19: SR16983-R2-P3-F01 (VHH)
VHH: EVQLVESGGGLVQPGGSLRLSCAASGFTFSTKWMYWVRQGPGKGLEWVSTIDASGGSTYYADSVKGRFTISRDNTEKKVYLQMNSLESADTAVYYCVRSAGGQFRGRGTQVTVSS
B19: binds [1]; no binding [2].

B20: SR16983-R2-P3-B01 (VHH)
VHH: QLQLVESGGGLVQAGGSLRLSCAASGRTFGTYVIGWFRQAPGKEREFVAAFSRSTGNTVYPDSVKGRFTISRDDAKNTVTLQMNSLKPEDTAVYYCAARASINYNYANWPYWGQGTQVTVSS
B20: binds [1]; no binding [2].

B21: SR16983-R3-P3-F04 (VHH)
VHH: B20 VHH with F29V, T31S, V33A, I34M, V48L, F51S, P61A, V79L, T80Y
B21: no binding [3]; binds [1].

B22: SR16983-R2-P4-F03 (VHH)
VHH: B20 VHH with L2V, T31S, I34M, V48L, N57S, P61A, R72K, V79L, T80Y, A98T
B22: binds [1]; no binding [2].

B23: SR16983-R2-P3-E04 (VHH)
VHH: B20 VHH with F29V, T31S, I34M, V48L, F51S, P61A, T69S, V79L, T80Y, A98T
B23: binds [1]; no binding [2].

B24: SR16983-R3-P3-G03 (VHH)
VHH: B20 VHH with L2V, F29V, T31S, I34M, F47L, V48L, P61A, V79L, T80Y
B24: no binding [3]; binds [1].

B25: SR16983-R2-P3-E06 (VHH)
VHH: QLQLVESGGGLVQAGGSLRLSCVASGRTVGSYAVAWFRQAPGKERELLAASSRSTGNTVYADSVKGRFTIARDDAKNTLYLQMNSLKPEDTAVYYCAARASINYNYANWPYWGQGTQVTVSS
B25: no binding [2].

B26: SR16983-R2-P3-F12 (VHH)
VHH: B20 VHH with L2V, I34M, N57S, V59T, P61A, V79L, T80Y, A98T
B26: binds [1]; no binding [2].

B27: SR16983-R3-P5-G12 (VHH)
VHH: B25 VHH
B27: no binding [2].

B28: SR16983-R2-P4-C02 (VHH)
VHH: QVQLVESGGGLVQAGGSLRLSCTTSGSTFSITAGGWYRQAPGKQRELVADIANDGSTTSADSVKGRFTISRDNAKNTVELQMSSLKLEDTAVYYCFVVGKSDSMPRARAYWGQGTQVTVSS
B28: binds [1]; no binding [2].

B29: SR16983-R3P2H09 (VHH)
VHH: B28 VHH with Q1E, L20V, A40T, Q44E, S59Y, D61N, V92A, Y94R, K100I, A107P
B29: binds [1]; no binding [2].

B30: SR16983-R3-P5-D08 (VHH)
VHH: EVQLVESGGGLVQAGGSLRLSCTGSGSTFSVTAGGWYRQAPGKQRELVADIANDGSTTYLDFVKGRFTISRDNAKNSVDLQMNSLKPEDTAVYYCFVVGISDSTPRPRAYWGQGTQVTVSS
B30: binds [1]; no binding [2].

B31: SR16983-R2-P4-G08 (VHH)
VHH: EVQLVESGGGLVQAGGSLRLSCAASGLTSSTYAMAWFRQAPGKEREFVSVIDWRGSTTYTNSVKGRFTISRDNGKNTVYLQMNSLQPEDTALYYCAARASPGYVGSLYPYWGRGTQVTVSS
B31: binds [1]; no binding [2].

B32: SR16983-R3-P3-G04 (VHH)
VHH: QLQLVESGGGLVQAGGSLRLSCTASGSTVRVTAGGWYRQAPGNERELVADIDNGGRPTYADSVKGRFTISRDNAKNAVDLQMNNLKPEDTAVYYCFVIAIPDSAPRPRAYWGQGTQVTVSS
B32: binds [1]; no binding [2].

B33: SR16983-R3-P4-G09 (VHH)
VHH: B32 VHH with T23A, A40T, R56S, P57T, N84S, Y94R, A109S, Q116E
B33: binds [1]; no binding [2].
